Article PMC6731145

Experiments:
CEBPβ T167D = CEBPβ T167D (mouse, UniProt P28033-3 1-275, T167D); assay: EMSA
TFAP-2α = TFAP-2α (human, UniProt P05549 1-437); assay: EMSA
Sequence of TFAP-2α (P05549 whole entry): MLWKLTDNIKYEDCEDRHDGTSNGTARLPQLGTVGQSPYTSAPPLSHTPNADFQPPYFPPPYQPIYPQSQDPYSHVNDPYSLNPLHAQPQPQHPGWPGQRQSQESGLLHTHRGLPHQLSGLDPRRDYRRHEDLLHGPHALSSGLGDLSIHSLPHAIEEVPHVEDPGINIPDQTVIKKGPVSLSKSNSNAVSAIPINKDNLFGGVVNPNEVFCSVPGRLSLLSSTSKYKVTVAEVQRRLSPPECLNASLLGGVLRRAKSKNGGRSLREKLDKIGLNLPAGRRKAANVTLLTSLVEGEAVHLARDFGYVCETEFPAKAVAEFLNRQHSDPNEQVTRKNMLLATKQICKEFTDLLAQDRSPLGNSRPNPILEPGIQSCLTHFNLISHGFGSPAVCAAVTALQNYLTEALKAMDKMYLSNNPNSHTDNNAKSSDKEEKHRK

Sequence of CEBPβ T167D (P28033 22-296 T188D): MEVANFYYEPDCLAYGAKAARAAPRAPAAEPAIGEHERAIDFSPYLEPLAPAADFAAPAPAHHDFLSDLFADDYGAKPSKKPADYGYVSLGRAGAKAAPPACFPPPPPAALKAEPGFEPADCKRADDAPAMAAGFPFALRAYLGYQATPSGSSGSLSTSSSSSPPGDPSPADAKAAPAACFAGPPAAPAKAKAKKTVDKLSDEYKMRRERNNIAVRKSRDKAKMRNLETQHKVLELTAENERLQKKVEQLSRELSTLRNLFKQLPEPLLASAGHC

Binder	binding result (CEBPβ T167D)	binding result (TFAP-2α)
CX3CR1-DNA (dsDNA) DNA 1: GATCCGCAGGGCCTCTCGGCTGCTGATCTTCAGCTGGTTGCTGAGAGTTGCAGCATTGCTGAGTCTTAGCAATGGATACTTCCCGATTCCCCTCACAAAAATAGGTCAGTCTGTCTGGCTAGTTCTGTACTTGCAGACACAGGGCATGTGGGGTTCCGGATC DNA 2: GATCCGGAACCCCACATGCCCTGTGTCTGCAAGTACAGAACTAGCCAGACAGACTGACCTATTTTTGTGAGGGGAATCGGGAAGTATCCATTGCTAAGACTCAGCAATGCTGCAACTCTCAGCAACCAGCTGAAGATCAGCAGCCGAGAGGCCCTGCGGATC	binds	–
NRCAM-DNA (dsDNA) DNA 1: GATCCATTACTTCTGAAACAGATGACTCCCAGCAGCTGCTGCCTGTGGCCCACAGGGCTTCCTGCCCTGCATGACAGCTGCACATCACATCCTGTGGTCATACTACTTCAGCCGCTTCTACGGCCAGATACAAAAGTGGGTGGGGAACATAGGCAAGGGATC DNA 2: GATCCCTTGCCTATGTTCCCCACCCACTTTTGTATCTGGCCGTAGAAGCGGCTGAAGTAGTATGACCACAGGATGTGATGTGCAGCTGTCATGCAGGGCAGGAAGCCCTGTGGGCCACAGGCAGCAGCTGCTGGGAGTCATCTGTTTCAGAAGTAATGGATC	–	binds
